We go through three substances from article doi:10.1101/2025.08.13.670189.

Holding throughout (test): EMSA
(In general: Mobility shift assays separate free from complexed probe on a gel.)

Series [1] concerns LigR2 (Pseudomonas putida KT2440).
The subject of series [2] is LigR1 (Pseudomonas putida KT2440).
The target of series [3] is T1, LigR2 (Pseudomonas putida KT2440) (UniProt Q88JP8).
T1 sequence: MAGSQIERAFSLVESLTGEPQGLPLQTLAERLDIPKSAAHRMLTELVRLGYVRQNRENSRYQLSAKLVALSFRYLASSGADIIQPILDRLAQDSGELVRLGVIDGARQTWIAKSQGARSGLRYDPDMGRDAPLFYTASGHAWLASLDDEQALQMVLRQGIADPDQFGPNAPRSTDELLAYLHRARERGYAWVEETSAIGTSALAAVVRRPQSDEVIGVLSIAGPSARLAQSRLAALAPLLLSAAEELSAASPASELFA

In series [4] the target is T2, LigR1 (Pseudomonas putida KT2440) (UniProt Q88JP0).
T2 sequence: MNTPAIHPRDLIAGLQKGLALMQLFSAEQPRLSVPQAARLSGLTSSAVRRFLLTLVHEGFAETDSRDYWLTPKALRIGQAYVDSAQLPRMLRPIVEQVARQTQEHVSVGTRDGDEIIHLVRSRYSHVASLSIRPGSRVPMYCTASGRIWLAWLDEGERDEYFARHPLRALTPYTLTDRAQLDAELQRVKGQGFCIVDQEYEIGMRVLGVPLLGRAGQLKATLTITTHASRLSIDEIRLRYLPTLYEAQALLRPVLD

By Kd is commonly meant the constant that tells how readily two partners part at equilibrium. High values mean a looser complex, low ones a tighter complex. lig1 intergenic region probe: the Kd in series [1] was 21600 nM; in series [2] it was 220 nM.

In the case of “GGTAATGCTGCCGGCCCATGATGCCGGCGCCAATCAAGGCAATACGAAGGGGTGCGTTCAACAGCCTGTCCTCTTGTCATTGTTGTTATGAAATTCTGAAACCGGGTTCCAAAATTCATACTCGACAATTTAGAACCAAGTTCAGCTTTTCAGAAGAACGGGCGCAACAGACTGTGCGGTAATCGACCGGAATATTCCCTCAGGCAAACAGCTCGCTGGCGGGACTGGCCGCCGACAGCTCTTCTGC (double strand) [lig2 intergenic region probe]”, the Kd in series [3] is 150 nM. In series [4], the binding result is “no binding”.

Substance lig2 intergenic region probe displayed a Kd in series [1] of 150 nM.
